Reference: paper PMC6336354, “A transient helix in the disordered region of dynein light intermediate chain links the motor to structurally diverse adaptors for cargo transport” (PLoS Biology, 2019)

Key:
Assay in all cases: pull-down; GST::LIC::6xHis (50 pmol) with 50 or 250 pmol adaptor and glutathione agarose, 1 h at 4°C, 150 μL of 50 mM HEPES, 100 mM NaCl, 5 mM DTT, pH 7.5, 0.1% Tween 20; Coomassie staining and immunoblot against Strep-tag II
Conditions in all cases: both partners purified
[1] = target: T1, RILP(1–401)::Strep-tag II (human, UniProt Q96NA2 1-401)
T1 construct: also called RILP::Strep-tag II; source: Sf21 insect cells (baculovirus), purified (Strep-Tactin Sepharose); not shown: Strep-tag II (after linker GSGSGR), C-terminal, kept
T1 sequence (looked up): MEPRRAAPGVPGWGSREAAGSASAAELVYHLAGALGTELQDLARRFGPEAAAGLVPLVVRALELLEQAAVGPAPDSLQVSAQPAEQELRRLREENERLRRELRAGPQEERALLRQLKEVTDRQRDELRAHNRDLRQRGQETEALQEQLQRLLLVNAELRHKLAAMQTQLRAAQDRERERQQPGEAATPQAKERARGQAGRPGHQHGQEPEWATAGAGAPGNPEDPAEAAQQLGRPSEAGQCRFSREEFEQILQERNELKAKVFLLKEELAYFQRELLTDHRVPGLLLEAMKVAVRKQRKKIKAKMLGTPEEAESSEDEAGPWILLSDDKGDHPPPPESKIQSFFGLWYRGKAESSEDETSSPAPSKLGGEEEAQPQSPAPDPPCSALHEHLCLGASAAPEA

[2] = target: T2, RAB11FIP3(2–756)::Strep-tag II (human, UniProt O75154 2-756)
T2 construct: source: E. coli BL21, purified (Ni-NTA, TEV cleavage, Strep-Tactin; dialysis or SEC); not shown: 6xHis::MBP, N-terminal, cleaved; Strep-tag II (after linker GSGSGR), C-terminal, kept
T2 sequence (looked up): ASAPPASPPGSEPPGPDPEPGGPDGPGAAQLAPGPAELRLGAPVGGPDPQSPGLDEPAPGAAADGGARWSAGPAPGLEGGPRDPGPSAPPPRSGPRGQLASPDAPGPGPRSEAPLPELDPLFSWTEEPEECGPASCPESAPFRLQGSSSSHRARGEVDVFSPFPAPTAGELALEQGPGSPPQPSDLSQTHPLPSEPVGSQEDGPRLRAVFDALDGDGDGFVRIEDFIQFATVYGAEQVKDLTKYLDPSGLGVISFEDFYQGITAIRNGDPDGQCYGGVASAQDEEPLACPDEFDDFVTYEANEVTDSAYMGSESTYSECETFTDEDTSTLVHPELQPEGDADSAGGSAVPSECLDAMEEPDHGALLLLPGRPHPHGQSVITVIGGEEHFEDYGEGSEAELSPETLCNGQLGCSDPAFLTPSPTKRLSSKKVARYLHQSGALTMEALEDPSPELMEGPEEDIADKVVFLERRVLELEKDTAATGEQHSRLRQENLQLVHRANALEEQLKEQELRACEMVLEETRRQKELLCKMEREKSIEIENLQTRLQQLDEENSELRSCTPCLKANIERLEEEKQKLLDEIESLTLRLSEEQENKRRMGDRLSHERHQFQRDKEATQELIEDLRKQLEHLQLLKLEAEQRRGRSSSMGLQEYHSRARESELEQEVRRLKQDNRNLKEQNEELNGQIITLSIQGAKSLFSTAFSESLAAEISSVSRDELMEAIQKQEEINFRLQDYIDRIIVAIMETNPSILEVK

NIN(1–693)::Strep-tag II = target: T3, NIN(1–693)::Strep-tag II (human, UniProt Q8N4C6 1-693)
T3 construct: human ninein (NIN), N-terminal fragment, residues 1-693 of 2,090; also called ninein; source: E. coli Rosetta, purified (Ni-NTA, TEV cleavage, Strep-Tactin; dialysis or SEC); not shown: 6xHis::MBP, N-terminal, cleaved; Strep-tag II (after linker GSGSGR), C-terminal, kept
T3 sequence (looked up): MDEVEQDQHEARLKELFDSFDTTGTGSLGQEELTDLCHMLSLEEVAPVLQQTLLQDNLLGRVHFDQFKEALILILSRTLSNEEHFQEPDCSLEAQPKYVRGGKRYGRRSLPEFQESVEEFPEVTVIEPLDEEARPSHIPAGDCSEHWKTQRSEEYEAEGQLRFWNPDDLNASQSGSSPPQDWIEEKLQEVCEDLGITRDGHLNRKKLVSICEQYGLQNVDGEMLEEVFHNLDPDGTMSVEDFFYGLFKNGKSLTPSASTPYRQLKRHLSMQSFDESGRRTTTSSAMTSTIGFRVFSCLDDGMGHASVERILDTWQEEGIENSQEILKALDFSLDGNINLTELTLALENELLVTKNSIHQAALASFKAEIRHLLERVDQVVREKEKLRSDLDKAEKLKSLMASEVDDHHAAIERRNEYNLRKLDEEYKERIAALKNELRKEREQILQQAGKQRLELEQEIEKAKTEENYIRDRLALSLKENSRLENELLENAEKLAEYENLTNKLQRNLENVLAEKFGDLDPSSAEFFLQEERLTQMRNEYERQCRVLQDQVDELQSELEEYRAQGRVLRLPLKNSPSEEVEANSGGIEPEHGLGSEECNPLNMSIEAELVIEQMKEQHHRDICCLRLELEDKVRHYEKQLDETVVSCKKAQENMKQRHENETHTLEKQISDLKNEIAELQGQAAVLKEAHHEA

Measured: binding result

B1: GST::LIC1(414–471)::6xHis (domain or fragment, human)
chain: WSSNVASVSPIPAGSKKIDPNMKAGATSEGVLANFFNSLLSKKTGSPGGPGVSGGSPAG
notes: single N-terminal tryptophan added in the construct; human dynein light intermediate chain 1 (DYNC1LI1), residues 414-471; source: E. coli BL21, purified (glutathione agarose, Ni-NTA; dialysis or SEC); not shown: GST, N-terminal, kept; 6xHis (after linker GSGSG), C-terminal, kept
binds: all assays above

B2: GST::LIC2(375–450)::6xHis (domain or fragment, human)
chain: WATPTRASESPARGPSGSPRTQGRGGPASVPSSSPGTSVKKPDPNIKNNAASEGVLASFFNSLLSKKTGSPGSPGAG
notes: single N-terminal tryptophan added in the construct; source: E. coli BL21, purified (glutathione agarose, Ni-NTA; dialysis or SEC); not shown: GST, N-terminal, kept; 6xHis (after linker GSGSG), C-terminal, kept
binds: all assays above

B3: GST::LIC1(402–471)::6xHis (domain or fragment, human)
chain: WPGGSPRTPNRSVSSNVASVSPIPAGSKKIDPNMKAGATSEGVLANFFNSLLSKKTGSPGGPGVSGGSPAG
notes: single N-terminal tryptophan added in the construct; human dynein light intermediate chain 1 (DYNC1LI1), residues 402-471; source: E. coli BL21, purified (glutathione agarose, Ni-NTA; dialysis or SEC); not shown: GST, N-terminal, kept; 6xHis (after linker GSGSG), C-terminal, kept
binds: all assays above

B4: GST::LIC2(375–492)::6xHis (domain or fragment, human)
chain: WATPTRASESPARGPSGSPRTQGRGGPASVPSSSPGTSVKKPDPNIKNNAASEGVLASFFNSLLSKKTGSPGSPGAGGVQSTAKKSGQKTVLSNVQEELDRMTRKPDSMVTNSSTENEA
notes: single N-terminal tryptophan added in the construct; also called LIC2-C; source: E. coli BL21, purified (glutathione agarose, Ni-NTA; dialysis or SEC); not shown: GST, N-terminal, kept; 6xHis (after linker GSGSG), C-terminal, kept
binds: all assays above
